Reference: the supplement of paper PMC9732359
± gives the uncertainty stated by the source.

Test: protein stability index of a GFP-peptide fusion (yeast GPS) (PSI 1-4); higher = more stable; sorted into four equal gates, so the index is relative within each strain
Summary of the method: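 Peptides tiling yeast proteins in 17-residue segments were fused downstream of GFP, with Cherry expressed from the same plasmid. As a pooled library in yeast, mid-log cultures grown in leucine-free medium were sorted into four equal gates by GFP/Cherry fluorescence ratio. Gate plasmids were PCR-amplified and Illumina-sequenced, and barcodes linked reads to strains. Each peptide received a protein stability index equal to the sum of each gate's read frequency times its gate number.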

Row | Sequence | protein stability index (doa10∆) | protein stability index (pdr5∆) | protein stability index (san1∆) | protein stability index (ubr1∆)
1 | KNSDVWFLDHNYIENMN [RPN8] | 2.68 ± 0.1 | 2.44 ± 0.094 | 2.57 ± 0.11 | 2.41 ± 0.057
2 | FPNGFKNFENGPKKNVF [RPC34] | 3.26 ± 0.083 | 3.27 ± 0.082 | 3.21 ± 0.062 | 3.44 ± 0.045
3 | GSELSSKIRKIHIQETQ [SIR3] | 2.61 ± 0.069 | 2.54 ± 0.084 | 2.58 ± 0.075 | 2.68 ± 0.056
4 | LRHMPLASIPDIFITPT [SSN2] | 1.78 ± 0.054 | 1.69 ± 0.054 | 1.47 ± 0.068 | 1.61 ± 0.043
5 | LQFRPAPMYILDEVDAA [SMC2] | 1.59 ± 0.2 | 1.89 ± 0.25 | – | 1.89 ± 0.1
6 | LQSLNESKDLLRASFNK [SRB4] | 3.16 ± 0.13 | 3.32 ± 0.13 | 2.98 ± 0.083 | 3.48 ± 0.075
7 | FKVYEPLLLVGLDKFSN [RPS16A] | 1.72 ± 0.058 | 1.96 ± 0.055 | 1.85 ± 0.074 | 2.14 ± 0.043
8 | KLSKILRTEYGWDSLAS [SNU114] | 3.17 ± 0.14 | 3.17 ± 0.2 | 3.1 ± 0.21 | 3.3 ± 0.17
9 | DNSNVMTVKLESITYQK [RGR1] | 2.88 ± 0.096 | 2.43 ± 0.1 | 3.1 ± 0.12 | 2.93 ± 0.1
10 | EGYQNDINTIKLQLSFV [SRP72] | 3.12 ± 0.21 | 2.73 ± 0.088 | 2.1 ± 0.26 | 3.07 ± 0.14
11 | MAPSAKATAAKKAVVKG [RPL25] | – | 2.56 ± 0.15 | – | –
12 | NLHALSMSLQSKNLGEI [SWI1] | 2.57 ± 0.058 | 2.61 ± 0.077 | 2.04 ± 0.17 | 2.66 ± 0.068
13 | DDALHAKKLPNGNWEVG [DIS3] | 3.3 ± 0.098 | 3.12 ± 0.083 | 2.94 ± 0.057 | 3.05 ± 0.057
14 | LLNVSVNITKFSKFERS [SKI6] | 2.32 ± 0.075 | 2.49 ± 0.049 | 2.7 ± 0.06 | 2.44 ± 0.039
15 | NVLCVNIKSNDFSIRKT [ECM29] | 2.52 ± 0.068 | 2.66 ± 0.099 | 2.58 ± 0.1 | 2.6 ± 0.071
16 | PLINRLKHYNGYDINYI [SWI1] | 2.41 ± 0.068 | 2.57 ± 0.051 | 2.76 ± 0.065 | 2.69 ± 0.043
17 | NVNNRFDNFLTEEELQA [BRN1] | 3.07 ± 0.078 | 2.63 ± 0.079 | 3 ± 0.056 | 2.63 ± 0.054
18 | LALSSNISRDFQSYIVS [COR1] | 2.03 ± 0.073 | 2.71 ± 0.084 | 2.09 ± 0.1 | 1.88 ± 0.047
19 | NDRNPRLNENKKIGCYM [CSN12] | 3.04 ± 0.069 | 3.22 ± 0.072 | 3.12 ± 0.051 | 3.26 ± 0.065
20 | KSTASTAAANTEKLSNG [YOR098C/NUP1] | 2.91 ± 0.23 | 3.11 ± 0.16 | 3.1 ± 0.12 | 3.31 ± 0.091
21 | ISAFTQFLRLIFVSILS [ARP9] | 2.17 ± 0.065 | 1.88 ± 0.1 | 2.9 ± 0.12 | 1.22 ± 0.027
22 | VFVKKHHELIKVKHDSQ [SSN2] | 1.32 ± 0.07 | 1.29 ± 0.053 | 1.18 ± 0.095 | 1.35 ± 0.051
23 | MIQEVIVEEDLEPFEAS [FAS2] | 3.5 ± 0.18 | 3.16 ± 0.11 | 3.53 ± 0.063 | 3.47 ± 0.099
24 | FLFQNINFERIDEVFSW [GRR1] | 2.36 ± 0.059 | 2.36 ± 0.071 | 2.47 ± 0.056 | 2.28 ± 0.048
25 | LFKNYRFNFISKYFIID [YMR129W/POM152] | 1.97 ± 0.068 | 1.41 ± 0.074 | 1.32 ± 0.1 | 1.42 ± 0.061
26 | VPQSEETRAELSQLCAV [RPO21] | 2.37 ± 0.067 | 3.02 ± 0.065 | 2.79 ± 0.067 | 3.09 ± 0.061

Row | Sequence | protein stability index (doa10∆) | protein stability index (pdr5∆) | protein stability index (san1∆) | protein stability index (ubr1∆)
27 | KIADNISKDENEDQFLE [YDL116W/NUP84] | 2.92 ± 0.14 | 2.98 ± 0.13 | 2.86 ± 0.13 | 3.33 ± 0.1
28 | TNGGLFGSGTQNNNTLG [YGR119C/NUP57] | 3.25 ± 0.11 | 2.91 ± 0.091 | 3.02 ± 0.069 | 3.08 ± 0.069
29 | IKTQQHILPEVPPVENF [TAF14] | 2.21 ± 0.1 | 2.42 ± 0.082 | 2.89 ± 0.086 | 2.95 ± 0.073
30 | EKSTQLQQKHELDTASR [YGR119C/NUP57] | 2.95 ± 0.044 | 3.06 ± 0.039 | 2.85 ± 0.029 | 3.21 ± 0.031
31 | ELPTQLALEIIVRPAKG [RRP46] | 1.52 ± 0.041 | 1.57 ± 0.044 | 1.49 ± 0.079 | 1.84 ± 0.045
32 | FPQTAMLRRHAAPPSTN [DIS3] | 1.89 ± 0.1 | 1.93 ± 0.12 | – | 1.74 ± 0.07
33 | NEESTNERLEINQEKPV [SIR4] | 3.31 ± 0.18 | 3.32 ± 0.13 | 3.37 ± 0.092 | 3.36 ± 0.1
34 | TLYSVKSKEDMKQLKFF [SNU114] | 3.28 ± 0.17 | 3.33 ± 0.13 | 3.17 ± 0.083 | 3.1 ± 0.087
35 | DLRIRIKLDIVVGQNQL [SNF5] | 1.38 ± 0.088 | 1.38 ± 0.086 | 1.67 ± 0.1 | 1.75 ± 0.071
36 | LSGIIQDIYYLAQTLKL [RRI2] | 1.54 ± 0.081 | 1.66 ± 0.14 | 1.14 ± 0.092 | 1.04 ± 0.093
37 | FTYNKFLLNQNKQLSQS [YIL149C/MLP2] | 2.68 ± 0.069 | 2.96 ± 0.06 | 3.15 ± 0.06 | 3.17 ± 0.062
38 | MEEEQQRQERLRQQQQQ [RPN10] | 3.4 ± 0.17 | 2.86 ± 0.25 | 3.37 ± 0.066 | 3.39 ± 0.085
39 | NEKIEKRSDLTGANSIY [UBP6] | 2.75 ± 0.086 | 3.01 ± 0.062 | 3.06 ± 0.075 | 3.15 ± 0.068
40 | RNNSKSVLLKKLGSVRV [SRP72] | – | 1.33 ± 0.11 | – | 1.69 ± 0.087
41 | EAGASAELDDCRGVSEN [RPO21] | 3.47 ± 0.11 | 3.54 ± 0.15 | 3.26 ± 0.08 | 3.6 ± 0.13
42 | KERLTKEAAAIAEGKSK [RPL8B] | 2.19 ± 0.05 | 2.33 ± 0.056 | 2.02 ± 0.073 | 2.38 ± 0.033
43 | KLINIKKFDISNDNLDL [MED1] | 2.83 ± 0.2 | 3.01 ± 0.15 | 2.48 ± 0.15 | 2.83 ± 0.096
44 | VHDKVLEDMVFPTEIVG [RPS7B] | 2.63 ± 0.13 | 2.83 ± 0.08 | 2.56 ± 0.083 | 3.06 ± 0.054
45 | KIDGNPDELIKAGVEAI [PRE5] | 3.32 ± 0.17 | 3.44 ± 0.2 | 3.29 ± 0.083 | 3.36 ± 0.092
46 | KPPSSAFNFSFNTSRNV [YAR002W/NUP60] | 3.2 ± 0.042 | 3.18 ± 0.056 | 3.26 ± 0.045 | 3.05 ± 0.04
47 | KLDENNAQLSCITKQDG [PUP2] | 2.79 ± 0.12 | 3.13 ± 0.087 | 3.11 ± 0.098 | 3.06 ± 0.088
48 | PNEFMQFKSKEVEKAHP [PRP8] | 3.16 ± 0.08 | 3.37 ± 0.11 | 3.23 ± 0.052 | 3.25 ± 0.091
49 | MKAVRKVAEVKKLEGTI [RPT4] | 3.15 ± 0.093 | 3.2 ± 0.1 | 3.16 ± 0.073 | 3.56 ± 0.071
50 | KSVKFVQGLLQNAAANA [RPL17A] | 2.56 ± 0.065 | 2.65 ± 0.068 | 2.28 ± 0.05 | 2.46 ± 0.034
51 | DKKYKGLTTVWLLSALG [REC8] | 2.24 ± 0.054 | 2.38 ± 0.063 | 2.04 ± 0.084 | 2.29 ± 0.039
